# Test results published in patent publication US10751422B2, “Antibody drug conjugates (ADC) that bind to FLT3 proteins” (AGENSYS, INC., priority 2015, dated 2020).
# B1: Human FLT3 ligand: human FLT3 ligand, purchased from R and D Systems (protein)
# chain: TQDCSFQHSPISSDFAVKIRELSDYLLQDYPVTVASNLQDEELCGGLWRLVLAQRWMERLKTVAGSKMQGLLERVNTEIHFVTKCAFQPPPSCLRFVQTNISRLLQETSEQLVALKPWITRQNFSRCLELQCQPDSSTLPPPWSPRPLEATAPTAPQPP
# B2: v62-1b21: hybridoma FLT3 MAb from VelocImmune mice, fully human variable regions and mouse constant regions (antibody, V domains shown)
# VH: EVQLVESGGGLVRPGGSLRLSCAASGFTFSGYSINWVRQAPGKGLEWVSSISSSSNYIYYADSVKGRFTISRDNAKNSLYLQMNSLRAEDTAVYYCAREGFIAGTTFDAFDIWGQGTMVTVSS
# VL: DIQMTQSPSSLSASVGDRVTITCRASQGIRNDLGWYQQKPGKAPKRLIYAASSLQSGVPSRFSGSGSGTEFTLTISSLQPEDFATYYCLQHNGFPYTFGQGTKLEIKR
# B3: v62-1b21.1-AGL-0129-08 (conjugate)
# VH: EVQLVESGGGLVRPGGSLRLSCAASGFTFSGYSINWVRQAPGKGLEWVSSISSSSNYIYYADSVKGRFTISRDNAKNSLYLQMNSLRAEDTAVYYCAREGFIAGTTFDAFDIWGQGTMVTVSS
# VL: DIQMTQSPSSLSASVGDRVTITCRASQGIRNDLGWYQQKPGKAPKRLIYAASSLQSGVPSRFSGSGSGTEFTLTISSLQPEDFATYYCLQHNGFPYTFGQGTKLEIKR
# Assays:
# [1] = test system: Raji; experiment: ADCC activity in vitro (CytoTox 96 LDH assay), positive control cell line Raji; assay type: cell-based; details: effector normal human PBMC, E:T=100:1, 2.5 ug/mL, 4 hours
# [2] = test system: EOL-1; experiment: EOL-1 cell growth with human FLT3 ligand and antibody (Cell Titer Glo, 5 days); assay type: cell-based; details: 50, 10 or 5 ng/mL, no antibody
# Description: The ability of FLT3 antibodies (CHv62.21 and v62-1b37.1) to mediate the effect of human FLT3 ligand was evaluated using the human leukemia EOL-1 cell line, which endogenously expresses FLT3. Isotype control antibody (mLys-1c3.1) was also used. […] The next day, cells were treated with 50, 10 or 5 ng/mL of human FLT3 ligand (in 25 μl of complete media) and 10, 1, 0.1 and 0 μg/mL of test antibody (in 25 μl of complete media). Media alone was used as the untreated control. […] At the end of the incubation period, 100 μl of Cell Titer Glo was added to each well and incubated for 30 minutes, shaking, at room temperature.
# [3] = molecular target: Flt3 protein (Homo sapiens, UniProt P36888); experiment: Binding of hybridoma MAb to Flt3 protein and Flt3 expressing cells; details: recombinant and endogenous cells
# Source text: MAbs to FLT3 were generated using VelocImmune® technology (Regeneron, Tarrytown, N.Y.) wherein genetically engineered mice make antibodies that have fully human variable regions and mouse constant regions. The MAb designated v62-1b21 (also known as AGS62.21) was generated after immunizing VelocImmune® mice with recombinant human FLT3 protein.
# [4] = test system: RS-4-11; assay type: cell-based, human
# Description: Briefly, The RS-4-11 cells were seeded in 50 μl of complete media at a density of 3000 cells per well onto 96 well plates and placed in a tissue culture incubator at 37° C.; 5% CO2. The next day, the ADCs were prepared in complete media at 10 μg/mL and serially diluted 1:5 for a total of 9 points. […] At the end of the incubation period, 20 μl of Presto Blue was added to each well and incubated for 2 hours. The plates were read using a BioTek Synergy H4 plate reader using 540 Excitation and 590 Emission wavelengths and graphed using Graphpad Prism software.
molecule,measurement,setting,value
Rituximab,ADCC activity,[1],confirms ADCC activity
B1,effect of human FLT3 ligand alone on growth of EOL-1 cells,[2],has no effect on growth
B2,binding to Flt3 protein and Flt3 expressing cells,[3],specifically binds to Flt3 protein and Flt3 expressing cells
B3,cytotoxicity,[4],can induce cytotoxicity
